This note sets out measurements from publication PMC2897027 (Journal of molecular biology, 2010).

Experiment [1] addresses CTD MSK1 construct comprising residues 398-738 (human) (UniProt O75582). The experiment in a line: SEC. A general note: In gel filtration, larger molecules generally elute earlier.
Experiment [2] has as its target CTD MSK1 construct comprising residues 414-750 (human) (UniProt O75582). The experiment in a line: SEC.
The target of experiment [3] is "full length" C-terminal kinase domain of MSK1 (residues 414-802) (human, UniProt O75582 414-802). The experiment in a line: SPR. On the technique in general: SPR reads the build-up and loss of mass on a sensor chip optically.
"full length" C-terminal kinase domain of MSK1 (residues 414-802), sequence (O75582 414-802): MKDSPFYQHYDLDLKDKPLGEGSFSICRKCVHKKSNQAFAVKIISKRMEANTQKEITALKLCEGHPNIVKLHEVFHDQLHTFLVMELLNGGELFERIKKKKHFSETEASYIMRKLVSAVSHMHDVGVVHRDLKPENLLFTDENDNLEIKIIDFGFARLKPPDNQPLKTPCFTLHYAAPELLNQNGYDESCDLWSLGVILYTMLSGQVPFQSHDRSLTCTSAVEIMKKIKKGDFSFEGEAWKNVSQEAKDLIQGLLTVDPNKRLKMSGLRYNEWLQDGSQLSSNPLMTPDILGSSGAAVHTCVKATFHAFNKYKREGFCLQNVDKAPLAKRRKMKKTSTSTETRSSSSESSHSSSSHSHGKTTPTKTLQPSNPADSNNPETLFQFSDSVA

As a reminder, the stoichiometry N is the number of molecules, sites or subunits per partner or assembly. “CTD MSK1 construct comprising residues 398-738 (from UniProt O75582 398-738) (domain or fragment)”: in experiment [1], the stoichiometry N was found to be 2.

“CTD MSK1 construct comprising residues 414-750 (from UniProt O75582 414-750) (domain or fragment)”: the stoichiometry N in experiment [2] came to 2.

B1: Full length human ERK1 (enzyme, UniProt P27361 1-379, looked up)
chain: MAAAAAQGGGGGEPRRTEGVGPGVPGEVEMVKGQPFDVGPRYTQLQYIGEGAYGMVSSAYDHVRKTRVAIKKISPFEHQTYCQRTLREIQILLRFRHENVIGIRDILRASTLEAMRDVYIVQDLMETDLYKLLKSQQLSNDHICYFLYQILRGLKYIHSANVLHRDLKPSNLLINTTCDLKICDFGLARIADPEHDHTGFLTEYVATRWYRAPEIMLNSKGYTKSIDIWSVGCILAEMLSNRPIFPGKHYLDQLNHILGILGSPSQEDLNCIINMKARNYLQSLPSKTKVAWAKLFPKSDSKALDLLDRMLTFNPNKRITVEEALAHPYLEQYYDPTDEPVAEEPFTFAMELDDLPKERLKELIFQETARFQPGVLEAP
Usually Kd stands for the free concentration of one partner at which half of the binding sites on the other are occupied at equilibrium, for simple one-to-one binding. The molecule B1 showed a Kd in experiment [3] of 74 ± 6 nM.
